Laboratory results reported in patent publication US20110171218A1.

Biological target: TNF-alpha
Assay: cell-based or functional assay
Set-up: unit not given beside the values

Chain of TNFR2-h(1)Fc (chain): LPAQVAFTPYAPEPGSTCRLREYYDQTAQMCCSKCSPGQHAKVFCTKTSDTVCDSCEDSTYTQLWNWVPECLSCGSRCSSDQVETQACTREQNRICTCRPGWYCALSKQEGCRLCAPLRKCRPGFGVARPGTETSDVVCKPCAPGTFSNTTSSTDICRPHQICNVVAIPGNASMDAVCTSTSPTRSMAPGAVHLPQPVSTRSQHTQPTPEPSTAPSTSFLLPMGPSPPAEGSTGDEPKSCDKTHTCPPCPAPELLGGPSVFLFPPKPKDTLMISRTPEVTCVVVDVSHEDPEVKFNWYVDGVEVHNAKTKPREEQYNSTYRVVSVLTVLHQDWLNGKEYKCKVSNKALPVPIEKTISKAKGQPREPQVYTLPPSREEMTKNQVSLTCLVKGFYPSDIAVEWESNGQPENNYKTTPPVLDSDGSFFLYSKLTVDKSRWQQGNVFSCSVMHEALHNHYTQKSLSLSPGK

Row | IC50 (WEHI Assay), normalized (normalized to TNFR2-h(1)Fc wt) | Substance
1 | 0.29 | T203N P205S TNFR2-h(1)Fc (Fc fusion)
2 | 1.9 | D47N TNFR2-h(1)Fc (Fc fusion)
3 | 0.25 | T222N TNFR2-h(1)Fc (Fc fusion)
4 | 1.1 | D47N S202N TNFR2-h(1)Fc (Fc fusion)
5 | 0.23 | S202N G253N TNFR2-h(1)Fc (Fc fusion)
6 | 0.25 | E155N S202N G253N TNFR2-h(1)Fc (Fc fusion)
7 | 0.57 | E155N G253N TNFR2-h(1)Fc (Fc fusion)
8 | 3 | D47N/G253N TNFR2-h(1)Fc (Fc fusion)
9 | 1 | TNFR2-h(1)Fc (Fc fusion)
10 | 1.6 | D47N/E155N TNFR2-h(1)Fc (Fc fusion)
